Residue numbers refer to the chain shown, from its start.
Key:
[1] = biological target: T1, monkey DLL3 on CHO K1-cyno DLL3 cells (cynomolgus monkey); assay: FACS, CHO K1-cyno DLL3 cells
T1 construct: also called monkey DLL3 recombinant cell line
T1 chain: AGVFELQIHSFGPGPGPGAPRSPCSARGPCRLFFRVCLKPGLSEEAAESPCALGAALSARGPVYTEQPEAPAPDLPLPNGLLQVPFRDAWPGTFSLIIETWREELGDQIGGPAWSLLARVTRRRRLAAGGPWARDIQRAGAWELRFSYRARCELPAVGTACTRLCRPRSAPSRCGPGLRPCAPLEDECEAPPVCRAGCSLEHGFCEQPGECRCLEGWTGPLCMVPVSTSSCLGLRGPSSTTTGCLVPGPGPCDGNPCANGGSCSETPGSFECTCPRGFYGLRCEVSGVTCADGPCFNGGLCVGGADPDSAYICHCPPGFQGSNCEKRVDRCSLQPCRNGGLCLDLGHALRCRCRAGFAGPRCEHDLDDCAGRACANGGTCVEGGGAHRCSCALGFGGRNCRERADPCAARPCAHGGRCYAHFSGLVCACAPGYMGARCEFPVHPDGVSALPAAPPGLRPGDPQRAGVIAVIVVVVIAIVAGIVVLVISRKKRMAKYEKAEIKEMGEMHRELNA

[2] = biological target: T2, human DLL3 endogenously expressed on SHP77 and NCI-H82 cells (human, UniProt Q9NYJ7 27-618); assay: FACS, SHP77 and NCI-H82 cells
T2 construct: whole, on cells; cells endogenously expressing DLL3; also called SHP77 cells; SHP-77 cells
T2 sequence (looked up): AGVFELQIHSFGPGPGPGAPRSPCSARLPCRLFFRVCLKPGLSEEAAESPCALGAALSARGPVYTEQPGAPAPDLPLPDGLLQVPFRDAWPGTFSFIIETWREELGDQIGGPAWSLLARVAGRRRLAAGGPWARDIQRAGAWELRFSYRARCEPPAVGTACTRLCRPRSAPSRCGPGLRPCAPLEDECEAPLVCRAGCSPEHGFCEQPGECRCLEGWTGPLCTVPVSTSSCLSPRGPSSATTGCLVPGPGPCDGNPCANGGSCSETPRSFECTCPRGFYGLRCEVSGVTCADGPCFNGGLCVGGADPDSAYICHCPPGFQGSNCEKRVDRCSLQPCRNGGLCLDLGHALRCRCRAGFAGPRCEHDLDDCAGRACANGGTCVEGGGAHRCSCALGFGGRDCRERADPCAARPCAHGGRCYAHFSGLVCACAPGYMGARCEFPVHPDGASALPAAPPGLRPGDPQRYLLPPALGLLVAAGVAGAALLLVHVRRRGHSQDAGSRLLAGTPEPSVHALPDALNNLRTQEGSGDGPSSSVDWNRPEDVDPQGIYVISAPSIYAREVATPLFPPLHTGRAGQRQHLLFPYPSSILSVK

[3] = biological target: T3, human DLL3 on CHO-K1 hDLL3 cells (human, UniProt Q9NYJ7 27-492); assay: FACS, CHO-K1 hDLL3 cells
T3 construct: also called human DLL3 recombinant cell line
T3 sequence: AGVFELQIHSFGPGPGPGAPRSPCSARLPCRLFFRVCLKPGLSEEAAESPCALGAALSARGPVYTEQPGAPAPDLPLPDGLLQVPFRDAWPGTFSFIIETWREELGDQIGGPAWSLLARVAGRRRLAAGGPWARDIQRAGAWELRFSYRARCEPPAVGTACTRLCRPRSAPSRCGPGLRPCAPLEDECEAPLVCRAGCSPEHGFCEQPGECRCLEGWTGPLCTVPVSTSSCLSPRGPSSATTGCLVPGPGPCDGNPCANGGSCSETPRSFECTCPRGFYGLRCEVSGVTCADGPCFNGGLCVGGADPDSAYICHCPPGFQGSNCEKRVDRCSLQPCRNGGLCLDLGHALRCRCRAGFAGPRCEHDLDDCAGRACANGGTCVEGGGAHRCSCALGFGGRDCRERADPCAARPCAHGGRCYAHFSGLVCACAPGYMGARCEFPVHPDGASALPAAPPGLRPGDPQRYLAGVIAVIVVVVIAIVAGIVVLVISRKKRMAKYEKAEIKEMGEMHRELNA

[4] = biological target: T4, mouse DLL3 on CHO K1-mDLL3 cells (mouse, UniProt O88516 33-490); assay: FACS, CHO K1-mDLL3 cells
T4 construct: also called mouse DLL3 recombinant cell line
T4 sequence: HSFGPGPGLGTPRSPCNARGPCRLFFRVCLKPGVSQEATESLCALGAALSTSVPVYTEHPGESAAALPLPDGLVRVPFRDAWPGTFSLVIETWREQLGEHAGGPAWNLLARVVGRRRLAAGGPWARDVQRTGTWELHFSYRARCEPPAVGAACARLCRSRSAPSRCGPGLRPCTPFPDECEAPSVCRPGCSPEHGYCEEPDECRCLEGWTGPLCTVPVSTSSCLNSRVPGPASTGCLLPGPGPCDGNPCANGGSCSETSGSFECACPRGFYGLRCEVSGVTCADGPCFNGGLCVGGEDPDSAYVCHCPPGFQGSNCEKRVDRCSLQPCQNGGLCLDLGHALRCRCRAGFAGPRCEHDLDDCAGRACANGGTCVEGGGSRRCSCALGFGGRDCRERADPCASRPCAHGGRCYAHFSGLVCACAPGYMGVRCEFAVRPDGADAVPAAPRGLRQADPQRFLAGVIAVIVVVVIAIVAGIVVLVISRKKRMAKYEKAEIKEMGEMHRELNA

human DLL3-his protein = biological target: T5, human DLL3-his protein (human, UniProt Q9NYJ7 27-492); assay: ELISA
T5 construct: also called human DLL3 protein; DLL3 antigen protein; not shown: His tag
T5 sequence: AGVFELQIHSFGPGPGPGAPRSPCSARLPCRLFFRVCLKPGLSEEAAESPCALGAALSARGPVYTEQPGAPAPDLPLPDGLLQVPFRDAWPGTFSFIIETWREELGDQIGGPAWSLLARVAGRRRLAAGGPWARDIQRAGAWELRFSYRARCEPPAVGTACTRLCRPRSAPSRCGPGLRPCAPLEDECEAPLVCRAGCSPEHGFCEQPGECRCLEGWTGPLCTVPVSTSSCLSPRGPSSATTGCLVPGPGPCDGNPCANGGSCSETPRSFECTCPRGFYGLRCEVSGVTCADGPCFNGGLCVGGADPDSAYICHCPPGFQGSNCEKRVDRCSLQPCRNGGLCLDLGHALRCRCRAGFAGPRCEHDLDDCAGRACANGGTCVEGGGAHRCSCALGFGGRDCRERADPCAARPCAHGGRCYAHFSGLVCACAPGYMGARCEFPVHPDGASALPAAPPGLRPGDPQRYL

Measured: binding result

B1: Hab006VL1VH4-hFc (Fc fusion)
scFv (part 1 of 2): DIQMTQSPSSLSASVGDRVTITCRATKSISKYLAWYQQKPGKAPKLLIFSGSTLQSGVPSRFSGSGSGTDFTLTISSLQPEDFATYYCQQHHEYPYTFGGGTKVEIK
scFv (part 2 of 2): EVQLVQSGAEVKKPGASVKVSCKASGYTFTSYWMHWVRQAPGQRLEWMGVIDPSDSLANYNQEFKGRVTLTVDTSSSTAYMELSSLRSEDTAVYYCARDSTVVAPMDYWGQGTTVTVSS
notes: humanized mab006, VL-linker-VH-human IgG1 Fc; also called Hab006VL1VL4-hFc; not shown: linker; human IgG1 Fc fragment
binds: all assays above

B2: Hab006VL4VH1-hFc (Fc fusion)
scFv (part 1 of 2): DIVMTQSPDSLAVSLGERATINCRATKSISKYLAWYQQKPGQTNKLLIFSGSTLQSGVPDRFSGSGSGTDFTLTISSLQAEDVAVYYCQQHHEYPYTFGGGTKVEIK
scFv (part 2 of 2): B1 scFv (part 2 of 2) with L70I, S76A
notes: humanized mab006, VL-linker-VH-human IgG1 Fc; also called Hab006VL4VL1-hFc; not shown: linker; human IgG1 Fc fragment
binds: all assays above

B3: Hab006VL4VH2-hFc (Fc fusion)
scFv (part 1 of 2): B2 scFv (part 1 of 2)
scFv (part 2 of 2): B1 scFv (part 2 of 2) with S76A
notes: humanized mab006, VL-linker-VH-human IgG1 Fc; also called Hab006VL4VL2-hFc; not shown: linker; human IgG1 Fc fragment
binds: all assays above

B4: Hab009VL1aVH1-hFc (Fc fusion)
scFv (part 1 of 2): DIVMTQSPLSLPVTPGEPASISCRASQTISDYLHWYLQKPGQSPQLLIKYASQSISGVPDRFSGSGSGSDFTLKISRVEAEDVGVYYCQQGHSFPLTFGQGTKLEIK
scFv (part 2 of 2): EVQLVQSGAEVKKPGASVKVSCKASGYTFTSYWMHWVRQAPGQRLEWMGTIYPGNSDTRYNQKFKDRVTITADTSASTAYMELSSLRSEDTAVYYCTRSYDYGDLDYWGQGTTVTVSS
notes: humanized mab009, VL-linker-VH-human IgG1 Fc; not shown: linker; human IgG1 Fc fragment
binds: all assays above

B5: Hab009VL2aVH1-hFc (Fc fusion)
scFv (part 1 of 2): B4 scFv (part 1 of 2) with Q45R, S69T
scFv (part 2 of 2): B4 scFv (part 2 of 2)
notes: as for B4
binds: all assays above

B6: Hab009VL3aVH1-hFc (Fc fusion)
scFv (part 1 of 2): B4 scFv (part 1 of 2) with P40S, G41H, S69T
scFv (part 2 of 2): B4 scFv (part 2 of 2)
notes: as for B4
binds: all assays above

B7: Hab013VL2VH2a-hFc (Fc fusion)
scFv (part 1 of 2): EIVLTQSPATLSLSPGERATLSCRASKSVSTSGFSYMHWYQQKPGQPPRLLIYLASNLESGIPARFSGSGSGTDFTLTISSLEPEDFAVYYCQHSRELPFTFGQGTKLEIK
scFv (part 2 of 2): EVQLVQSGAEVKKPGSSVKVSCKASGYAFSNYWINWVRQAPGQGLEWMGQINPGDGDTIYNSKFKGRVTITADKSTSTAYMELSSLRSEDTAVYYCEREGRNYGDFAYWGQGTTVTVSS
notes: humanized mab013, VL-linker-VH-human IgG1 Fc; not shown: linker; human IgG1 Fc fragment
not listed: [1]
binds: all other assays above

B8: Hab014VL1VH2-hFc (Fc fusion)
scFv (part 1 of 2): DIQMTQSPSSLSASVGDRVTITCKASEDIYNRLAWYQQKPGKVPKLLISGATSLETGVPSRFSGSGSGTDFTLTISSLQPEDVATYYCQQYWSLPWTFGGGTKVEIK
scFv (part 2 of 2): EVQLVQSGAEVKKPGASVKVSCKASGYTFTDYYMNWVRQAPGQRLEWMGDINPNHGDTGYNQKFTGRVTLTVDKSASTAYMELSSLRSEDTAVYYCARNFFYYGTTYGWYFDVWGQGTTVTVSS
notes: humanized mab014, VL-linker-VH-human IgG1 Fc; not shown: linker; human IgG1 Fc fragment
binds: all assays above

B9: Hab014VL2VH1-hFc (Fc fusion)
scFv (part 1 of 2): B8 scFv (part 1 of 2) with T69K
scFv (part 2 of 2): B8 scFv (part 2 of 2) with L70I
notes: as for B8
binds: all assays above

B10: Hab014VL3VH1-hFc (Fc fusion)
scFv (part 1 of 2): DIVMTQSPDSLAVSLGERATINCKASEDIYNRLAWYQQKPGQTPKLLISGATSLETGVPDRFSGSGSGKDFTLTISSLQAEDVAVYYCQQYWSLPWTFGGGTKVEIK
scFv (part 2 of 2): B8 scFv (part 2 of 2) with L70I
notes: as for B8
binds: all assays above

B11: Hab015VL4VH1a-hFc (Fc fusion)
scFv (part 1 of 2): NIVLTQSPATLSLSPGERATLSCKASENVGTYVSWFQQKPGQSPRLLIYGASNRYTGIPARFSGSGSGTDFTLTISSLEPEDFAVYYCGQFYSFPSTFGGGTKVEIK
scFv (part 2 of 2): EVQLVESGGGLVKPGGSLRLSCAASGITFSNFWMNWVRQAPGKGLEWVGQIRLKSDDYATHYAESVKGRFTISREDSKNTVYLQMNSLKTEDTAVYYCTTGYYFDYWGQGTTVTVSS
notes: humanized mab015, VL-linker-VH-human IgG1 Fc; also called Hab015L4H1a; not shown: linker; human IgG1 Fc fragment
binds: all assays above

B12: Hab015VL4VH1b-hFc (Fc fusion)
scFv (part 1 of 2): B11 scFv (part 1 of 2)
scFv (part 2 of 2): B11 scFv (part 2 of 2) with D56E
notes: humanized mab015, VL-linker-VH-human IgG1 Fc; also called Hab015L4H1b; not shown: linker; human IgG1 Fc fragment
binds: all assays above
